Legend:
setb1_human SETDB1 = setb1_human SETDB1 (UniProt Q15047)
ctnb1_human CTNNB1 = ctnb1_human CTNNB1 (UniProt P35222)
ehmt2_human EHMT2 = ehmt2_human EHMT2 (UniProt Q96KQ7)

Measured: effect of a mutation on the interaction

Parafibromin (Homo sapiens) (from UniProt Q6P1J9) Y290F;Y293F;Y315F
increasing interaction: setb1_human SETDB1 | SETDB1, Q15047-2 | ctnb1_human CTNNB1 | ehmt2_human EHMT2

Reference: IntAct's records for PubMed 29774127
